Measurements from the supplement of paper PMC12042874.
± gives the uncertainty stated by the source.

Experiment: amyloid nucleation score (Sup35N fusion, yeast selection) (log enrichment); library NNK3; higher = more nucleation; inactive = no reads after selection
Method in brief: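 Sup35N was fused to peptides of 20 random codons and expressed in psi-negative yeast, which were induced with 100 μM copper sulfate for 24 hours and then grown on medium lacking adenine and uracil for 7 days at 30°C. Plasmid inserts from input and output were sequenced on Illumina. The nucleation score is the DiMSum log enrichment of output over input reads, centred on the mode score of non-aggregating sequences. Sequences with under 100 input reads were left out, and random libraries had three technical output replicates.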

Which amyloid nucleation score does the source give for WLLDSRDGMRRKRAPRRVFA here?
Its amyloid nucleation score is “inactive”.

With WLQGCRSRWAVVL as the substance, how does the amyloid nucleation score read?
Its amyloid nucleation score is “inactive”.

For WLSLFVIMPCLWGFCSMDSN, which amyloid nucleation score is on record?
The amyloid nucleation score was 1.47 ± 0.11.

With WLVAEFQTYPMTQHLYVSMR as the substance, how does the amyloid nucleation score read?
The amyloid nucleation score was “inactive”.

With WMHRAYWLSGVCRVLQVTNL as the substance, how does the amyloid nucleation score read?
The amyloid nucleation score was “inactive”.

Which amyloid nucleation score does the source give for WNEAWWNNRLGLARMVVLLG here?
Its amyloid nucleation score is “inactive”.

For WNFIVFGFYLDGRILFISYL, which amyloid nucleation score is on record?
The amyloid nucleation score was -0.755 ± 0.7.

For WNLYRFLNW, which amyloid nucleation score is on record?
The amyloid nucleation score was “inactive”.

For WNPFGRGWLTLPNMFHKTVI, which amyloid nucleation score is on record?
The amyloid nucleation score was “inactive”.

Which amyloid nucleation score does the source give for WPDLQLLSSALPTPLQFSWL here?
Its amyloid nucleation score is “inactive”.

For WPLRGRSMLQWLSCHIQWAG, which amyloid nucleation score is on record?
Its amyloid nucleation score is “inactive”.

Which amyloid nucleation score does the source give for WRFFVVRKNSTSA here?
The amyloid nucleation score was “inactive”.

With WRNENLPQSGRSMLVIFLLV as the substance, how does the amyloid nucleation score read?
Its amyloid nucleation score is “inactive”.

For WRNMTI, which amyloid nucleation score is on record?
The amyloid nucleation score was “inactive”.

Which amyloid nucleation score does the source give for WRRLEGSHA here?
The amyloid nucleation score was “inactive”.

For WRRWQSRCGSLLRYSKETLN, which amyloid nucleation score is on record?
Its amyloid nucleation score is “inactive”.

Which amyloid nucleation score does the source give for WRSTRIRTSWHTDTDFLSNG here?
Its amyloid nucleation score is “inactive”.

Which amyloid nucleation score does the source give for WRVAYET here?
Its amyloid nucleation score is “inactive”.

Which amyloid nucleation score does the source give for WRVSFTLS here?
Its amyloid nucleation score is “inactive”.

With WRYVFLVC as the substance, how does the amyloid nucleation score read?
Its amyloid nucleation score is “inactive”.

Which amyloid nucleation score does the source give for WSETNTFS here?
The amyloid nucleation score was “inactive”.

With WSFMYVYVC as the substance, how does the amyloid nucleation score read?
The amyloid nucleation score was 1.71 ± 0.06.

For WSFRVKTNRDDTEMLLSRSE, which amyloid nucleation score is on record?
Its amyloid nucleation score is “inactive”.

With WSMLPLKNTIAKQ as the substance, how does the amyloid nucleation score read?
The amyloid nucleation score was “inactive”.

For WSNSCYEC, which amyloid nucleation score is on record?
Its amyloid nucleation score is “inactive”.

With WSPGESNTLVGVCIEDALRS as the substance, how does the amyloid nucleation score read?
Its amyloid nucleation score is “inactive”.

Which amyloid nucleation score does the source give for WSRSACMGEGNLDVFSVWLL here?
Its amyloid nucleation score is “inactive”.

For WSTPDFRGLHYSTVFITIFA, which amyloid nucleation score is on record?
The amyloid nucleation score was 0.194 ± 0.51.

With WSVQMNRITDSSLDCMMMH as the substance, how does the amyloid nucleation score read?
The amyloid nucleation score was “inactive”.

Which amyloid nucleation score does the source give for WTDNSVFLTVVINDIRTSTS here?
Its amyloid nucleation score is 2.56 ± 0.062.

With WTKKFRVMTACLLEWYVDEK as the substance, how does the amyloid nucleation score read?
Its amyloid nucleation score is “inactive”.

Which amyloid nucleation score does the source give for WTMSLLQFDLDTSTSTLTMV here?
Its amyloid nucleation score is “inactive”.

For WTRVFLRTKGRSEFLLRWPL, which amyloid nucleation score is on record?
The amyloid nucleation score was “inactive”.

Which amyloid nucleation score does the source give for WTSHALKISPLNICNQLEHV here?
The amyloid nucleation score was -0.09 ± 0.77.

Which amyloid nucleation score does the source give for WTSHPYWSL here?
The amyloid nucleation score was “inactive”.

With WTWTSLSSLMWSV as the substance, how does the amyloid nucleation score read?
Its amyloid nucleation score is “inactive”.

Which amyloid nucleation score does the source give for WTYTKVWIWS here?
The amyloid nucleation score was “inactive”.

For WVDYLYNSLESIRMCWANVY, which amyloid nucleation score is on record?
Its amyloid nucleation score is “inactive”.

With WVFNGARKGM as the substance, how does the amyloid nucleation score read?
Its amyloid nucleation score is “inactive”.

For WVFRFRNQ, which amyloid nucleation score is on record?
Its amyloid nucleation score is “inactive”.

For WVPLDHVGGA, which amyloid nucleation score is on record?
The amyloid nucleation score was “inactive”.

For WVSFCVCWNFNLY, which amyloid nucleation score is on record?
The amyloid nucleation score was 3.18 ± 0.064.

Which amyloid nucleation score does the source give for WVSFKDLSELCLGCFRMPRF here?
Its amyloid nucleation score is “inactive”.

For WVSRNTVRGKVMSRCWVVQY, which amyloid nucleation score is on record?
Its amyloid nucleation score is “inactive”.

For WVWSKL, which amyloid nucleation score is on record?
The amyloid nucleation score was “inactive”.

Which amyloid nucleation score does the source give for WWPLSLGNNVGPLHCRSRWE here?
Its amyloid nucleation score is “inactive”.

For WYDGQRFCRELYNCPSAPGL, which amyloid nucleation score is on record?
The amyloid nucleation score was “inactive”.

Which amyloid nucleation score does the source give for WYERGG here?
Its amyloid nucleation score is “inactive”.

With WYGVSACYGWHNVAHSSRTR as the substance, how does the amyloid nucleation score read?
Its amyloid nucleation score is “inactive”.

Which amyloid nucleation score does the source give for WYRFPCFFLYCDAWMILNFA here?
The amyloid nucleation score was “inactive”.

Which amyloid nucleation score does the source give for WYRMLFIRSKDSMDKMPIFL here?
Its amyloid nucleation score is “inactive”.

With WYSCAKMANIHIVSVVTTST as the substance, how does the amyloid nucleation score read?
The amyloid nucleation score was “inactive”.

For WYSNYCMIDRHGVFEVVSCM, which amyloid nucleation score is on record?
The amyloid nucleation score was “inactive”.

With WYSRLRLEQMRKWCHRVL as the substance, how does the amyloid nucleation score read?
Its amyloid nucleation score is “inactive”.

With YACETVMSFVYMITFIRYLR as the substance, how does the amyloid nucleation score read?
The amyloid nucleation score was “inactive”.

For YACRVGVWKRVRVWNSGVSL, which amyloid nucleation score is on record?
Its amyloid nucleation score is “inactive”.

Which amyloid nucleation score does the source give for YAFIL here?
The amyloid nucleation score was “inactive”.

With YAHLAL as the substance, how does the amyloid nucleation score read?
The amyloid nucleation score was “inactive”.

For YALVVR, which amyloid nucleation score is on record?
Its amyloid nucleation score is “inactive”.

Which amyloid nucleation score does the source give for YARYMYYATNKINNWVVLKP here?
Its amyloid nucleation score is “inactive”.

For YASVEIFHWTFSGILYSWGH, which amyloid nucleation score is on record?
Its amyloid nucleation score is “inactive”.

With YASWKLRTN as the substance, how does the amyloid nucleation score read?
Its amyloid nucleation score is “inactive”.

With YCETLTRY as the substance, how does the amyloid nucleation score read?
The amyloid nucleation score was “inactive”.

With YCFSFAISCNDMRLFFLVNV as the substance, how does the amyloid nucleation score read?
Its amyloid nucleation score is “inactive”.

With YCSCMLTGNMGRSH as the substance, how does the amyloid nucleation score read?
The amyloid nucleation score was -0.032 ± 0.33.

Which amyloid nucleation score does the source give for YCSYQNR here?
The amyloid nucleation score was “inactive”.

For YDELY, which amyloid nucleation score is on record?
The amyloid nucleation score was “inactive”.

Which amyloid nucleation score does the source give for YDKWSRSMYVKLCLGAALSW here?
Its amyloid nucleation score is “inactive”.

For YDLGIGNKHVRYLWGPARKK, which amyloid nucleation score is on record?
Its amyloid nucleation score is “inactive”.

With YDLRAALKV as the substance, how does the amyloid nucleation score read?
Its amyloid nucleation score is “inactive”.

Which amyloid nucleation score does the source give for YDNANGRTRIIMISGRVSNY here?
The amyloid nucleation score was “inactive”.

Which amyloid nucleation score does the source give for YDRVSMGRFIKR here?
The amyloid nucleation score was “inactive”.

For YDVFLIL, which amyloid nucleation score is on record?
The amyloid nucleation score was “inactive”.

With YDVPTSTDSLFATFVYYGRR as the substance, how does the amyloid nucleation score read?
The amyloid nucleation score was 1.44 ± 0.12.

For YEDQRSLRFCR, which amyloid nucleation score is on record?
The amyloid nucleation score was “inactive”.

For YEMENDVS, which amyloid nucleation score is on record?
Its amyloid nucleation score is “inactive”.

Which amyloid nucleation score does the source give for YESHLLRNRDSRTYSR here?
Its amyloid nucleation score is “inactive”.

For YESHLSRRLLIMYIGAFLGR, which amyloid nucleation score is on record?
Its amyloid nucleation score is “inactive”.

With YFAVMGGITLHLFAVIRSCL as the substance, how does the amyloid nucleation score read?
The amyloid nucleation score was “inactive”.

With YFCGAVEESERLRGMEGNPD as the substance, how does the amyloid nucleation score read?
The amyloid nucleation score was 0.84 ± 0.2.

With YFCVCSCVDFGYASYRGYAA as the substance, how does the amyloid nucleation score read?
Its amyloid nucleation score is “inactive”.

With YFFIRVIALYLRVELSL as the substance, how does the amyloid nucleation score read?
The amyloid nucleation score was “inactive”.

For YFGCSYTNQAFGRSDSSYVD, which amyloid nucleation score is on record?
The amyloid nucleation score was “inactive”.

For YFINSFCVAVWIICHQGVCA, which amyloid nucleation score is on record?
Its amyloid nucleation score is “inactive”.

With YFKRCQGNEQFSRNRNANGA as the substance, how does the amyloid nucleation score read?
Its amyloid nucleation score is “inactive”.

For YFRSLGLAIGCNR, which amyloid nucleation score is on record?
Its amyloid nucleation score is “inactive”.

For YFSVLSESVSHSDVFRS, which amyloid nucleation score is on record?
The amyloid nucleation score was “inactive”.

Which amyloid nucleation score does the source give for YFVSVGRNKELRGLFTRLVV here?
Its amyloid nucleation score is “inactive”.

For YFVTFVYTKLLCNVRSLL, which amyloid nucleation score is on record?
Its amyloid nucleation score is 0.578 ± 0.12.

For YFYGLQWPCD, which amyloid nucleation score is on record?
Its amyloid nucleation score is “inactive”.

Which amyloid nucleation score does the source give for YGDEASPLSFCIDHEDRVKV here?
Its amyloid nucleation score is “inactive”.

With YGFAYV as the substance, how does the amyloid nucleation score read?
Its amyloid nucleation score is -0.336 ± 1.1.

With YGFCSC as the substance, how does the amyloid nucleation score read?
Its amyloid nucleation score is -0.033 ± 0.81.

For YGFMCLVCIGTCDCKRSWQG, which amyloid nucleation score is on record?
The amyloid nucleation score was 2.28 ± 0.086.

Which amyloid nucleation score does the source give for YGHSRWSKISHRSSACLFGS here?
The amyloid nucleation score was “inactive”.

Which amyloid nucleation score does the source give for YGLTVCTTGLVFNNWMGSMV here?
The amyloid nucleation score was 1.83 ± 0.11.

Which amyloid nucleation score does the source give for YGMSTG here?
The amyloid nucleation score was “inactive”.

With YGMYNMTGNMAFKTPARYIF as the substance, how does the amyloid nucleation score read?
Its amyloid nucleation score is “inactive”.

With YGNVIFRFVRADERI as the substance, how does the amyloid nucleation score read?
The amyloid nucleation score was 0.314 ± 0.35.

With YGRRMAHAGGVTGYGNLWCH as the substance, how does the amyloid nucleation score read?
The amyloid nucleation score was “inactive”.

Which amyloid nucleation score does the source give for YGYFHTRGYVAFE here?
The amyloid nucleation score was “inactive”.

Which amyloid nucleation score does the source give for YHCAFVSINSECMVDGLTLC here?
Its amyloid nucleation score is 0.883 ± 0.15.

With YHGCPERVWLSA as the substance, how does the amyloid nucleation score read?
The amyloid nucleation score was “inactive”.

Which amyloid nucleation score does the source give for YHMVCNCDWVGVAFYVSYGR here?
The amyloid nucleation score was 1.91 ± 0.065.

Which amyloid nucleation score does the source give for YIALCLRYHTFLMKQEFHVG here?
The amyloid nucleation score was “inactive”.

For YIDFVPLVYTRKFDGEETCI, which amyloid nucleation score is on record?
Its amyloid nucleation score is “inactive”.

With YIFFEWGINPHRGDYVFSFR as the substance, how does the amyloid nucleation score read?
Its amyloid nucleation score is “inactive”.

For YIGCCWYSSCDRVSYRYSVM, which amyloid nucleation score is on record?
The amyloid nucleation score was 2.78 ± 0.06.

With YIGRAGQFDRRFFGSLCCAM as the substance, how does the amyloid nucleation score read?
The amyloid nucleation score was “inactive”.

Which amyloid nucleation score does the source give for YIIFVNKLSSPYFVT here?
The amyloid nucleation score was 1.06 ± 0.19.

For YIITFGSMTCLVVTGNPAIV, which amyloid nucleation score is on record?
The amyloid nucleation score was -0.039 ± 0.66.

With YILNC as the substance, how does the amyloid nucleation score read?
The amyloid nucleation score was “inactive”.

With YILSTLAFFGDRNYDMVLGC as the substance, how does the amyloid nucleation score read?
Its amyloid nucleation score is “inactive”.

With YINFISWNVCVSCLFWLDSV as the substance, how does the amyloid nucleation score read?
Its amyloid nucleation score is 2.09 ± 0.054.

Which amyloid nucleation score does the source give for YISHWASGSFIVNYIERWMR here?
Its amyloid nucleation score is 0.707 ± 0.29.

For YISLISCMGKVNY, which amyloid nucleation score is on record?
Its amyloid nucleation score is 2.31 ± 0.089.

Which amyloid nucleation score does the source give for YISLVSWHNGWYSKLICGVV here?
The amyloid nucleation score was “inactive”.

For YITNVQVIGMMVINSNHKGV, which amyloid nucleation score is on record?
Its amyloid nucleation score is 3.42 ± 0.058.

For YIYRKCVD, which amyloid nucleation score is on record?
The amyloid nucleation score was “inactive”.

For YKHVARLEP, which amyloid nucleation score is on record?
The amyloid nucleation score was “inactive”.
